Source: US20100081621

Biological target: APOBEC3G D316R/D317R D316R,D317R (Homo sapiens) (UniProt Q9HC16)
Conditions: deamination; middle and 3' C deaminated at about same rate

Chain of APOBEC3G D316R/D317R D316R,D317R (Homo sapiens) (Q9HC16 whole entry D316R/D317R): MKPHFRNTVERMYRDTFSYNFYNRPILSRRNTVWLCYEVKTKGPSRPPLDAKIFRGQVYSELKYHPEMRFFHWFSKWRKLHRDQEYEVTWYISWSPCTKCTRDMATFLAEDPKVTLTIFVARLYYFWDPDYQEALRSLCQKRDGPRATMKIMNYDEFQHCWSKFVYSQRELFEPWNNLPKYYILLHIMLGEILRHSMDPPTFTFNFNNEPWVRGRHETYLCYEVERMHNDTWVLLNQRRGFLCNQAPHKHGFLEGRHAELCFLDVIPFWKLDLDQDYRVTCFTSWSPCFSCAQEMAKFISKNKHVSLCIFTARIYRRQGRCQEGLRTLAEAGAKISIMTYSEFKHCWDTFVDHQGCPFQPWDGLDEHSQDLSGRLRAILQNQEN

In the case of “FdT ssDNA deamination substrate with CCC motif”, the activity is reported as 1.6 fold of wt.
